Experiment: label from the status in PepcDB records
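Note: failed if final PepcDB status was selected cloned or expressed and not failed if soluble or beyond.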

| Sequence | protein production |
| --- | --- |
| MAKFNQDLNEVLNQALNLALDLNHALCTTEHVLLVILEHESGEKIIGTLERDDYDKLKQILKDYLLQYVPLKSDPAKMPARSFVLLRMLKRMYASCFESVGVEELLILMLDHPDCYASKLMDSFGIARLYSNPALLDLDNHGIPNDINDNEEAPKNTPLKKYAKNLSALAQDNALDPVIGREEEILRVIEILGRRKKNNPLLIGEAGVGKTSIAEALALKIAQKEVPEFLQEYEVYSLDLALMVAGAKYRGDFEKRLKKTLKEIQQNGRIILFIDEIHTLLGTGSSNAGSLDAANILKPVLTDGSLKCLGATTFEEYRSVFEKDKAFNRRFSVIKVEEPSKEACYLILKKIAPLYEEHHQVRYDESVFKACVDLTSDYMHDKFLPDKAIELLDEVGSRKKISPKKGKKIGVDDVKETLALKLKIPKMRLSSDKKALLRNLEKSLKNKIFAQAEAISLVSNAIKIQHCGLSAKNKPVGSFLFVGPSGVGKTELAKELALNLNLHFERFDMSEYKEAHSVAKLIGSPSGYVGFEQGGLLVNAIKKHPHCLLLLDEIEKAHSNVYDLLLQVMDNATLSDNLGNQASFKHVILIMTSNVGSKDKDTLGFFSAKNTKYDKAVKELLTPELRSRIDAIVPFNALSLEDFERIVSVELDKLKALALEQDITLKFHKEVVKFIAQKSYQTTLGAREIKKIIHNEIKTKLSDILLLQSFKKPCKIACLLEKNQLVLKEIKRAQKVKENDF | failed |
| MLTVHRDARDYQIIFLCSFLSLGILARDWSLSPLVIAVVLATALTVQSLFTINQQGNFSRWFSLDTWQSLWRHQGWKSALITGLGLCLLLRANHLSTLILAASLAIASKFLLQAWGKHWFNPANFGIIAALTLTGDAWVSPGQWGTTLWLGAVFLAAGGLVLGKVGRWDTSIMFLAVYAGLDLARNAWLGWPPEVSFHHLENGSLLVFALFMLTDPRSIPNARSSRLIWATAIAIFSLILQYHFYLPTALFWALFCLSPLTVLLDRQFPAPRFQWWQKKNPVPSN | failed |
| MEFIVDSVDKTMHIGRQLGSLVNKGDILCLTGDLGTGKTHISKGIAEGLGIDEHITSPTFNIVNEYHSGRLTLYHFDVYRVNDPDEIEAIGFDEYIFGDGVSLIEWANYIEELIPEEYIHIKIEKLPDMGENFRKITINGYGDRYNYIKEIKECLEHHHHHH | not failed |
| MGREIFNRRLPDNYNDFSHSMDNAANGHYFLRVASSNYKRPDGKNVRTVRDVIAEVDQNGVVVDEWRLFDILDPYRDVIMKTLDQGAVCLNIDASQSGHTLSEEDLAALDSSDKFGDIVGSGAGRNWAHVNSVDYDSEDDSIIISSRHQSAIIKIGRDKKVKWILGTPAGWKAPFNAAILTPVDSKGQKIACQDSGCEGDFDWTWTQHTAFKIDSKSKGDILYLSAFDNGDGRGLEQPAMQSMKYSRSVIYKIDQKNKTVQQIWQYGKERGNEWFSPVTSITEYQTDKNSVFVYSATAGGAFDLSVGAFTSLPNPYLEEFKWGEKEPAVEMQIHGARGYQAMPFSLTKALTELEHHHHHH | failed |
| MTQVYKAKFGTPNRGWVIIVHGLGEHSGRYSKLVSMLVNEGYAVYTFDWPGHGKSPGKRGHTSVEEAMEIIDFIIEEINDKPFLFGHSLGGLTVIRYAETRPEKIRGVIASSPALAKSPKTPSFMVALAKILGVLLPSLTLSNGIDPNLLSRNPDAVKRYIEDPLVHDRISAKLGRSIFKNMDLAHREAHKIKVPVLLLVGTGDVITPPEGARKLYGEIKVEDKEIVEFEGAYHEIFEDPEWGEEFHKKIVEWIKKH | failed |
| MVEPDRVFFVRVMREWISRFTGKIIENFEIHLSQPMGFAGDIMSLTEFATSRQVKNLVLDFSDPIQRNLSQAQQIIRDGLLRCRYPQKNELDVLQDCDDPMALHVSMKTRHLVMKTNMHANDFVGISIFLNSCPELESLTFDLVTSSRFVRAPSPLVIDPVSHWLTSKSYECLEKTLKVVKITKFRGSSNELHMLQYLLRTGCVMERVDLYEAEGLNHNQKRWVLAGVEEVQQNFKRASRHLRITLHNA | not failed |
| MPRFSTACLDWESRIVNRESLIPFAPLFPTEAEAALDVFKSLQITDLPQVYDRKLGRHRHPTFGESCEQYVFDFVSAIFGAYDEESAKRVIEEFFLLISKKNIKSTLAAGIMLTALIRNWRHNQELLILAPTQEVAGNSFNPAASMVAADPDLTILLHVNKNTKEITHTLTKAVLKIVSADSNTAAGKKAAFVLIEELWLFGKKANAAAMLQEATGGLISRPEGFVIYITTQSDEPPAGVFKEKLDYFRDVRDGKIDDPTSLGVLYEFPDPMIDNEAYLDPANWYVTNPNMGRSVRKDWLERKLLKIQSGEDEEGDTWQSFLAKHLNVEIGMRQRGNRWPGANYWERAADPELAVLDHFAALDRFLERSEVVVVGVDGGGLDDLFGLTLVGREPDEIEIPVMVNGRESLVKMKRWLTWSHAWCHRDVLKRRKKIAPVLTDFDKAGHLTIVDAALEDLASIVDIIGTVKASGLLSSVAVDPAGLGEFVDALASPEIDITQENGLLVGVPQGFALMNAIKTAERRLSNGMLRHAGGPLMPWCVANLKIEPTATAIRATKQTAGDAKIDPAMALFDAVTMMVKNPEAPIASVYAERGIRVV | failed |
| PQALEFEYMRWIATGARAFIDAHQDASKLRITHLGGGACTMARYFADVYPQSRNTVVELDAELARLSREWFDIPRAPRVKIRVDDARMVAESFTPASRDVIIRDVFAGAITPQNFTTVEFFEHCHRGLAPGGLYVANCGDHSDLRGAKSELAGMMEVFEHVAVIADPPMLKGRRYGNIILMGSDTEFF | failed |
| MSKLSLKIGTYFLILALCIETIAFVSFYKSLSKMRIVEETDALLEKGNRYSKKIKSRERRDEYYKEMKHAEHNKNPKRPVYPEFDITNEAAHLVESESISNSDIAIIITDHNGKIISTSEPVTKDMQKQLTCKTETVPDGGLVVERNWKKSKFITTVSPLNTTKFQGKLYMLLKTSFLENMLLKLMNQFLIISVLTIILTTISVFVFSRVITEPLVKMKRATEKMSKLNKPIQLGIKRNDELGSLAKTIEDLSSELTYMKKERNEFLASVAHELLTPLTYMKGYAKVAKRDSLTKEEREEYLQIIEDETDSVTDLVQDLFMLVQLEQHQFVIKKQKVLLQPFLERMVEKTKTTLTNKQMQLHVYCKDDLEVCIDERRMEQVMLNLLHNAYQHSPENTAITIRVLMETDSFTISVQDEGEGIPEEDIPHIFDRFYRVDKSRTRATGGKGIGLAVAKEIVELHNGSILVTSQLGAGTNFIIELPFE | failed |
| MKRSEKKSMSSALKNGIMERTQPEKVVQMQGTADLSTSKLGTKKYWDELYALELENFRRNPQDTGDCWFSDSDAEQKMIDFLVDNIGAYRISENASVVDLGTGNGHMLFELHQTEFQGKLVGIDYSEESVKLASNIAEATGVDNFISFQQADIFSGDWKPGKYDIVLDKGTLDAISLSGMKINGKLDVVDVYAGVVERILKKDGIFLITSCNFTQDELVKIIETDNLKMWKTIKYPVFQFGGVQGATICSVAFVKQN | failed |
| MSGVASGKTAIKSTAKVLSFVVQKHWATRLHYDFRLELEGTMKSWAVPKGPSFDPNDKRMAVHVEDHPISYNSFEGEIPSGQYGAGKVIIWDKGTWIPLEDPHKGYRDGKLKFELRGLKLKGHWALVRMRKEENKKQEPWLLIKEKDEYVRSSREYSVVDEMPDSVAELEHHHHHH | failed |
| MAKELYVGHMSYEATEDDLRRLFSVAGTVTSVHIITDPETGRSKGCGYVRMLTEEEAKEAIETLDGALLRNRVITVSVARPQKQATRPAPRRGKPGPGGRPGKKRPS | failed |
| MSKKLVLLIISILCFTALTGCWIVRSDLSGDIIIGDGHGGTSHSIIKYNPATNKFESVEPGLYYEVEYNDDKSKILCYRFLENSEVRRFEICEYDIKSKKFGEPIFIPGDSQKFKGSVKYVPNSDRISFVLDYELHIYDRSSGTLTKLFEVAFNSYSWDNTGKKLLYGDYDENIYIYDMESNEKRKILTGICPVYSNSNEYIAYIGIDQRLTVYNVNTGKKWRTVPVDDSARYIFSPDDKYILLGTEYADLMSFPHYTLYILDYKTGKKKRLFGGEGNVPSLDWK | failed |
| MPLSYLSPSSSEERSDDPSKYDGDFGVPQICFCGKQLDLGWDLAVHEQCFCIDKRFGEHRELIQNAFKFGGDSNRLQINQIRAEIEDLKDRLDKKDAEITRLMDALGKK | failed |
| MLTIREIQSLVHKGEPGQWSHTKALYFFIAPSGRPFWAIRYMLKGRRRQMSLTDSIPATVRELKQIELLSETEREKVRKGIDPLAEREAAKAASPEPVRQLVTFKSVALDYIAANRGGWKNAKHVQQWENTLATYVYPVIGHLEPQSITTAEVLKILQPLWATKRETASRVRSRVETIIGAAKAKGMSEKPEIWANHHNPARWADNLEFWLNGKQEKNHFSAMPYPEIPAFAQSIAEREDYSTKALQFLILTATRTNETLGAEWSEIDTEKAVWTIPASRMKSGKEHRVPLSSEALKLVASLLRIEGNPYLFPGAIRNKSLSNMALLMVMRGLKLGHYVPHGFRSAFRDWAAEETVYPNHIVEMALAHTIKNKVEAAYRRGDLMEKRRQLMEDWSAYLASAR | failed |
| MEKIRQPTHAGSWYTDNPTKLSSDLEEWLNATGLTKSPDVRGVIAPHAGYSYSGRAAAYAFANIDPTNISRIFLLGPSHHFYTPKCALSTATVYKTPIGNLPVDVEMIKEIRAMGKFGMMDLRVDEAEHSMEMHLPYLAKVFEGNNVKVVPILVGAVSPENEAMYGELLAKYVDDPKNFFSVSSDFCHWGSRFNYMHYDNTHGAIHKSIEALDKKGMDIIETGDPDAFKKYLLEFENTICGRHPISIFLHMLKHSSSKIKINFLRYEQSSQCQTMRDSSVSYASAAAKLET | failed |
| MTQASRSEFRAELLSRIPRWYSPWGHLLFPAVAGLAIAAFALSRIEDLAAWQLAAVPAFLVFGNAVEWTAHRGMLHRRLRFAEVFYVRHTPQHHAVYVADDMAMRDWRELKLVLLPAYGVLAILAVTSPLTLAFLWLRQPNLAALWVASVVLYVLSYEWLHLAYHLPADRWLARTALVRTLRRHHQLHHAPHLMNRWNFNVTVPLWDWVRGTLYPAPAPGSRPAAQPTGAAGRAP | failed |
| MKVLGISCSPRPGQTTDRLVQEVLNNIEAPTEFVSLSGRRIGPCLGCLGCVADNVCKVRDDMGELRPLIVEADALVIGAPNYFGMLNGLAHCFLERLYQFRHQEGGALHGKLGVAVGVGSAMPDSAVRDIEKFFSFSRIEPVGNVTAIGPASCFNCGHGEECREGAIHRVFGPGTKITADLTPNLSKQPDSLTAARTLGEKLTQRLKQG | failed |
| MQLFHKTVNRRGTHSIKWDTYKNEELIHAWIADMDFEVPQPIQTALKKRIEHPIFGYTLPPENIGDIICNWTKKQYNWDIQKEWIVFSAGIVPALSTSIQAFTKENESVLVQPPIYPPFFEMVTTNNRQLCVSPLQKQNDTYAIDFEHLEKQFQQGVKLMLLCSPHNPIGRVWKKEELTKLGSLCTKYNVIVVADEIHSDIIYADHTHTPFASLSEELAARTITCMAPSKTFNIAGLQASIIIIPNEKLRQAFTSIQYRQGFHGLNIFAYTAMQSAYTECNDWLNEIRFYIEDNAKFACEYIKDHIPTLSVMKPEGSFLLWIDCSALNLSQDERTKLLEEKGKIIVEPGEKYGLGGEEHIGINIGCPRSVLEEILNRLRHTFS | not failed |
| MNSVGFYGKLAGRGDFVSRGLPNTFVEPWDAWLASGMRASQDELGAAWLDAYLTSPLWRFAIAPGLLGGEAVTGVVMPSIDRVGRYFPLTVACLLPANADLGGLVGGDDGWFEQVESLLLSTLEPEAEVEAFEQAVAQLPAPPCGPRIEQSLISGNLLRSEAVTPAQRLAALAQHACDGASHWWGRGSARISAGLMRYQGLPPAPAFGRFLTGEGEVIPLFPGIPG | not failed |
| MQNIARNISNRLAGFVYRQMRKAHANANSTVGYSVNANGALLAGCVIDCRSGKSDGRVFFGKDSVLSCRIVLERDVGTVHIGNDSYVGGSQIICADHIEIGNNVLISWGCTIVDHDSHSVDWRNRAEDVRKWREGLLSGGLEKASESKDWAVVEKAPIKIGDKTWLGMNVTVLKGITIGEGAVVAAGSVVTKDVDPWTLVAGNPARVIKELPKS | failed |
| MTGAVETESMKTVRIREKIKKFLGDRPRNTAEILEHINSTMRHGTTSQQLGNVLSKDKDIVKVGYIKRSGILSGGYDICEWATRNWVAEHCPEWTEGQPIILNEEGDFTLGPLPE | not failed |
